Reference: the Human Domainome abundance scans (Beltran et al. 2025)
± gives the uncertainty stated by the source.

B1: Calcium-binding protein 2, residues 155 to 219; numbered along this chain, Q9NPB3 (parent)
chain: RELRDAFREFDTNGDGRISVGELRAALKALLGERLSQREVDEILQDVDLNGDGLVDFEEFVRMMS

Variants of: B1
Experiment: abundance fitness (aPCA) (normalised: wild type 0, dead -1); higher = more abundant; growth selection in yeast, the domain comes from the species named
Conditions: Homo sapiens

RELFDAFREFDTNGDGRISVGELRAALKALLGERLSQREVDEILQDVDLNGDGLVDFEEFVRMMS and CELRDAFREFDTNGDGRISVGELRAALKALLGERLSQREVDEILQDVDLNGDGLVDFEEFVRMMS are within error of each other in abundance fitness: -0.321 ± 0.16 for the first, -0.26 ± 0.16 for the second.

Going from NELRDAFREFDTNGDGRISVGELRAALKALLGERLSQREVDEILQDVDLNGDGLVDFEEFVRMMS to GELRDAFREFDTNGDGRISVGELRAALKALLGERLSQREVDEILQDVDLNGDGLVDFEEFVRMMS, the abundance fitness falls from 0.078 ± 0.084 to -0.204 ± 0.11.

EELRDAFREFDTNGDGRISVGELRAALKALLGERLSQREVDEILQDVDLNGDGLVDFEEFVRMMS and AELRDAFREFDTNGDGRISVGELRAALKALLGERLSQREVDEILQDVDLNGDGLVDFEEFVRMMS are within error of each other in abundance fitness: 0.423 ± 0.36 for the first, -0.114 ± 0.33 for the second.

SELRDAFREFDTNGDGRISVGELRAALKALLGERLSQREVDEILQDVDLNGDGLVDFEEFVRMMS and KELRDAFREFDTNGDGRISVGELRAALKALLGERLSQREVDEILQDVDLNGDGLVDFEEFVRMMS are within error of each other in abundance fitness: -0.113 ± 0.1 for the first, 0.12 ± 0.37 for the second.

TELRDAFREFDTNGDGRISVGELRAALKALLGERLSQREVDEILQDVDLNGDGLVDFEEFVRMMS and MELRDAFREFDTNGDGRISVGELRAALKALLGERLSQREVDEILQDVDLNGDGLVDFEEFVRMMS are within error of each other in abundance fitness: -0.007 ± 0.19 for the first, 0.206 ± 0.21 for the second.

Going from REQRDAFREFDTNGDGRISVGELRAALKALLGERLSQREVDEILQDVDLNGDGLVDFEEFVRMMS to RETRDAFREFDTNGDGRISVGELRAALKALLGERLSQREVDEILQDVDLNGDGLVDFEEFVRMMS, the abundance fitness falls from 0.018 ± 0.095 to -0.281 ± 0.081.

RENRDAFREFDTNGDGRISVGELRAALKALLGERLSQREVDEILQDVDLNGDGLVDFEEFVRMMS and RESRDAFREFDTNGDGRISVGELRAALKALLGERLSQREVDEILQDVDLNGDGLVDFEEFVRMMS are within error of each other in abundance fitness: -0.345 ± 0.16 for the first, -0.473 ± 0.13 for the second.

REPRDAFREFDTNGDGRISVGELRAALKALLGERLSQREVDEILQDVDLNGDGLVDFEEFVRMMS and REARDAFREFDTNGDGRISVGELRAALKALLGERLSQREVDEILQDVDLNGDGLVDFEEFVRMMS are within error of each other in abundance fitness: -0.441 ± 0.11 for the first, -0.302 ± 0.064 for the second.

REFRDAFREFDTNGDGRISVGELRAALKALLGERLSQREVDEILQDVDLNGDGLVDFEEFVRMMS and REMRDAFREFDTNGDGRISVGELRAALKALLGERLSQREVDEILQDVDLNGDGLVDFEEFVRMMS are within error of each other in abundance fitness: -0.113 ± 0.2 for the first, 0.012 ± 0.068 for the second.

Going from RECRDAFREFDTNGDGRISVGELRAALKALLGERLSQREVDEILQDVDLNGDGLVDFEEFVRMMS to REVRDAFREFDTNGDGRISVGELRAALKALLGERLSQREVDEILQDVDLNGDGLVDFEEFVRMMS, the abundance fitness rises from -1 ± 0.25 to -0.15 ± 0.058.

Going from RERRDAFREFDTNGDGRISVGELRAALKALLGERLSQREVDEILQDVDLNGDGLVDFEEFVRMMS to REWRDAFREFDTNGDGRISVGELRAALKALLGERLSQREVDEILQDVDLNGDGLVDFEEFVRMMS, the abundance fitness rises from -0.729 ± 0.073 to -0.187 ± 0.1.

REERDAFREFDTNGDGRISVGELRAALKALLGERLSQREVDEILQDVDLNGDGLVDFEEFVRMMS and REIRDAFREFDTNGDGRISVGELRAALKALLGERLSQREVDEILQDVDLNGDGLVDFEEFVRMMS are within error of each other in abundance fitness: -0.274 ± 0.12 for the first, -0.095 ± 0.2 for the second.

Going from REDRDAFREFDTNGDGRISVGELRAALKALLGERLSQREVDEILQDVDLNGDGLVDFEEFVRMMS to REYRDAFREFDTNGDGRISVGELRAALKALLGERLSQREVDEILQDVDLNGDGLVDFEEFVRMMS, the abundance fitness rises from -0.497 ± 0.17 to -0.139 ± 0.17.

Compared with RELRAAFREFDTNGDGRISVGELRAALKALLGERLSQREVDEILQDVDLNGDGLVDFEEFVRMMS, RALRDAFREFDTNGDGRISVGELRAALKALLGERLSQREVDEILQDVDLNGDGLVDFEEFVRMMS is lower in abundance fitness: -0.226 ± 0.049 for the first, -0.509 ± 0.084 for the second.

RTLRDAFREFDTNGDGRISVGELRAALKALLGERLSQREVDEILQDVDLNGDGLVDFEEFVRMMS and RQLRDAFREFDTNGDGRISVGELRAALKALLGERLSQREVDEILQDVDLNGDGLVDFEEFVRMMS are within error of each other in abundance fitness: -0.093 ± 0.067 for the first, -0.114 ± 0.064 for the second.

Going from RDLRDAFREFDTNGDGRISVGELRAALKALLGERLSQREVDEILQDVDLNGDGLVDFEEFVRMMS to RRLRDAFREFDTNGDGRISVGELRAALKALLGERLSQREVDEILQDVDLNGDGLVDFEEFVRMMS, the abundance fitness rises from -0.677 ± 0.37 to -0.128 ± 0.058.

RVLRDAFREFDTNGDGRISVGELRAALKALLGERLSQREVDEILQDVDLNGDGLVDFEEFVRMMS and RSLRDAFREFDTNGDGRISVGELRAALKALLGERLSQREVDEILQDVDLNGDGLVDFEEFVRMMS are within error of each other in abundance fitness: -0.357 ± 0.091 for the first, -0.355 ± 0.13 for the second.

RGLRDAFREFDTNGDGRISVGELRAALKALLGERLSQREVDEILQDVDLNGDGLVDFEEFVRMMS and RHLRDAFREFDTNGDGRISVGELRAALKALLGERLSQREVDEILQDVDLNGDGLVDFEEFVRMMS are within error of each other in abundance fitness: -0.15 ± 0.096 for the first, -0.086 ± 0.13 for the second.

RKLRDAFREFDTNGDGRISVGELRAALKALLGERLSQREVDEILQDVDLNGDGLVDFEEFVRMMS and RPLRDAFREFDTNGDGRISVGELRAALKALLGERLSQREVDEILQDVDLNGDGLVDFEEFVRMMS are within error of each other in abundance fitness: -0.158 ± 0.1 for the first, -0.21 ± 0.076 for the second.

RCLRDAFREFDTNGDGRISVGELRAALKALLGERLSQREVDEILQDVDLNGDGLVDFEEFVRMMS and RYLRDAFREFDTNGDGRISVGELRAALKALLGERLSQREVDEILQDVDLNGDGLVDFEEFVRMMS are within error of each other in abundance fitness: -0.472 ± 0.19 for the first, -0.306 ± 0.15 for the second.

Going from RWLRDAFREFDTNGDGRISVGELRAALKALLGERLSQREVDEILQDVDLNGDGLVDFEEFVRMMS to RLLRDAFREFDTNGDGRISVGELRAALKALLGERLSQREVDEILQDVDLNGDGLVDFEEFVRMMS, the abundance fitness falls from -0.344 ± 0.075 to -0.612 ± 0.058.
